Measurements reported in patent EP4480965A1, “TRANSFERRIN RECEPTOR-BINDING MOLECULES, CONJUGATES THEREOF AND THEIR USES TO PREVENT OR TREAT CNS DISEASES” (Vect-Horus, priority 2023, dated 2024).

System: murine SOD1 mRNA
Experiment: siRNA biodistribution and SOD1 mRNA by in situ hybridization (miRNAScope / RNAScope)
Assay type: in vivo, C57Bl/6 mice
Settings: single ICV dose 100 µg, seven days
Experimental: For ISH bioanalysis, 20 µm sagittal cryosections of left brain hemispheres or coronal sections of spinal cords were prepared using a cryostat at -20°C (Leica), collected onto superfrost plus slides and stored at - 80°C until processing. For RNAScope® or miRNAScope® assays, slides containing cyosections were immediately transferred and fixed in 10% Neutral buffered formalin (NBF) for 1h30 at RT. Fluorescent RNAscope® assay for mRNAs detection or chromogenic miRNAscope® assay for siRNA detection were performed according to the manufacter's protocols (Advanced Cell Diagnostics, ACD). […] This distribution correlates with a broad and potent SOD1 mRNA knock-down, as assessed using RNAScope® (Figure 29B and 29E, right panels). […]
For ISH bioanalysis, 20 µm sagittal cryosections of left brain hemispheres or coronal sections of spinal cords were prepared using a cryostat at -20°C (Leica), collected onto superfrost plus slides and stored at - 80°C until processing. […] This distribution correlates with a broad TfR-dependent and potent SOD1 mRNA knock-down, as assessed using RNAScope® (Figure 31C and 31I, right panels).
An example of cleavable linker was evaluated and compared to the C5-hFc-siSOD1m-5'VP for its biodistribution in CNS tissues following systemic administration. […]

B1: C5-siSOD1m-5'VP: TfR-binding VHH-siRNA conjugate wherein VHH is C5 (conjugate)
VHH: EVQLVESGGGVVQPGGSLKLSCVASGTDFSINFIRWYRQAPGKQREFVAGFTATGNTNYADSMKGRFTISRDNTKNAVYLQIDSLKPEDTAVYYCYMLDKWGQGTQVTVSSAAAEQKLISEEDLNGAAHHHHHHGS
- biodistribution of the siSOD1m AS strand in brain and spinal cord: broad biodistribution
